Legend:
Conditions in all cases: both partners purified
[1] = molecular target: T1, Mnl1 (C579S;C644S)–Pdi1 complex (S. cerevisiae, UniProt P38888 21-796; P17967 29-522, C579S | C644S); assay: pull-down; as a6, but the Mnl1–Pdi1 complex was pretreated with DPS to induce disulfides between the Mnl1 loop cysteines and the active-site cysteines of Pdi1
T1 construct: Mnl1 (Htm1) of S. cerevisiae with both loop cysteines substituted; Pdi1 of S. cerevisiae, untagged; also called double-cysteine mutant; source: S. cerevisiae, overexpressed, purified (anti-FLAG M2 resin, Superdex 200); not shown: FLAG, C-terminal, kept
T1 sequence (looked up) 1: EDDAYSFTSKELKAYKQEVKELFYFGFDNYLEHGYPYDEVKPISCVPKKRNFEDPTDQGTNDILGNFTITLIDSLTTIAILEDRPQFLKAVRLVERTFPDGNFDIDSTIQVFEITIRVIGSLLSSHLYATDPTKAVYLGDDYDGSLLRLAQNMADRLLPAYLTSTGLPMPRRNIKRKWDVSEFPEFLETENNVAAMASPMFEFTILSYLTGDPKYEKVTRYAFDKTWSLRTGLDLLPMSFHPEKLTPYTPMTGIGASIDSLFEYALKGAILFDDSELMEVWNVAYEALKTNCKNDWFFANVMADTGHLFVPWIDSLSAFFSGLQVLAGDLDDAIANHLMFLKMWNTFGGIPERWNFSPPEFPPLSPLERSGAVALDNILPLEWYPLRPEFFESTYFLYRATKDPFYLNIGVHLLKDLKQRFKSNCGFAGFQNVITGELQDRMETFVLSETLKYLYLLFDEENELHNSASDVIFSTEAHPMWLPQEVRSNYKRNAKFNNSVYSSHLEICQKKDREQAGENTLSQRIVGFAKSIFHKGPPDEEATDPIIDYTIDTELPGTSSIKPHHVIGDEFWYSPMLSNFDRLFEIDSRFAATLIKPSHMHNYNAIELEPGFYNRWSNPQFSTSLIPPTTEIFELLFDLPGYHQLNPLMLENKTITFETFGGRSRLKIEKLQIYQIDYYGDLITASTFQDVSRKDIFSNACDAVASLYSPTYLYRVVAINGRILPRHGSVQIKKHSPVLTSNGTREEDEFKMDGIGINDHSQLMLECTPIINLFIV
T1 sequence (looked up) 2: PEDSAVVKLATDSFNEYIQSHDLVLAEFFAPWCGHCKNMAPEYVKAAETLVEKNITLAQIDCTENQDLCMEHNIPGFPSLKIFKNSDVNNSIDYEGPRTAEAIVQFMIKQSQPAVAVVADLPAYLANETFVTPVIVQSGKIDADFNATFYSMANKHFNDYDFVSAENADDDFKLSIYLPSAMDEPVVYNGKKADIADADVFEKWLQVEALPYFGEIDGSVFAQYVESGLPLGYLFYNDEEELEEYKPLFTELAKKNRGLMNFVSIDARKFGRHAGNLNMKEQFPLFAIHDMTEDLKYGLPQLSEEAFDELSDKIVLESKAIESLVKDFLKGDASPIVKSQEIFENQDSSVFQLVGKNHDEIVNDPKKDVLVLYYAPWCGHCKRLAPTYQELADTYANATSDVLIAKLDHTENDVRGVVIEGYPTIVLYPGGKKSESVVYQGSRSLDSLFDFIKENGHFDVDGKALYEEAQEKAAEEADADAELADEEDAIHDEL

[2] = molecular target: T2, Mnl1 (C579S)–Pdi1 complex (S. cerevisiae, UniProt P38888 21-796; P17967 29-522, C579S); assay: as above
T2 construct: Mnl1 (Htm1) of S. cerevisiae with a substituted loop cysteine; Pdi1 of S. cerevisiae, untagged; source: S. cerevisiae, overexpressed, purified (anti-FLAG M2 resin, Superdex 200); not shown: FLAG, C-terminal, kept
T2 sequence (looked up) 1: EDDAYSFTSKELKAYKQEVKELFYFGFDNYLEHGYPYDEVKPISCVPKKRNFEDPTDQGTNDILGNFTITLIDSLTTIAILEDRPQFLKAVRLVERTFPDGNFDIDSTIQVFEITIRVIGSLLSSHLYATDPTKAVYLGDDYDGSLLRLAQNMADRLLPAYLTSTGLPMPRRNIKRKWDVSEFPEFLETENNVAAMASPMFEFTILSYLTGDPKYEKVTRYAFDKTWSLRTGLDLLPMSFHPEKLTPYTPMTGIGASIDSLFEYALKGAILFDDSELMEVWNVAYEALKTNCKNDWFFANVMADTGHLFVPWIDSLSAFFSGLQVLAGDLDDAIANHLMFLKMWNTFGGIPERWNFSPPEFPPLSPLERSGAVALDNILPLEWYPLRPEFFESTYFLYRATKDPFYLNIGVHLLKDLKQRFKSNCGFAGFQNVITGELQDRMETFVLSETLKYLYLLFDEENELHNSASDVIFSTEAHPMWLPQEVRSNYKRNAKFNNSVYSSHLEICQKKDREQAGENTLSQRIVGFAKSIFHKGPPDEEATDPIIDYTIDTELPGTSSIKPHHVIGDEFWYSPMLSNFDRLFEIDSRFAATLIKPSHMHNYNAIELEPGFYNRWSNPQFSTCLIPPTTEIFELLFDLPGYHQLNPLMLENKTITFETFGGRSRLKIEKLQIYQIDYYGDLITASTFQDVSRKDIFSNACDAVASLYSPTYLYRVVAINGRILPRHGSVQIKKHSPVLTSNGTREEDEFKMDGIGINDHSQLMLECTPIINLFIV
T2 sequence (looked up) 2: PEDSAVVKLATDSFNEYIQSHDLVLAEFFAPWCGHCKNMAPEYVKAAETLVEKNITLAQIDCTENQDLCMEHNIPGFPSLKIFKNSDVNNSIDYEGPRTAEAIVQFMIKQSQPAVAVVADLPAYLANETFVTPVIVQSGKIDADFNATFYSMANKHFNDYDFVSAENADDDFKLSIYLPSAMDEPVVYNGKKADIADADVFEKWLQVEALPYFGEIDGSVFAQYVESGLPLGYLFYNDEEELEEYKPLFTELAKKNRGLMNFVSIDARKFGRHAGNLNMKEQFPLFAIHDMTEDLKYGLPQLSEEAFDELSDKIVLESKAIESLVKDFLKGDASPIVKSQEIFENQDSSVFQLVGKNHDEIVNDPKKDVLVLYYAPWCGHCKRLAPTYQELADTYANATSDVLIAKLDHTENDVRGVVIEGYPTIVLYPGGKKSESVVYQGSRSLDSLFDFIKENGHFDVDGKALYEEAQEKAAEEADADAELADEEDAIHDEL

[3] = molecular target: T3, Pdi1 (protein disulfide isomerase) (S. cerevisiae, UniProt P17967 29-522); assay: cross-linking; competition: RBΔS, RBun or RBsc incubated with Mnl1–Pdi1 complex at the indicated molar ratios (tenfold excess in Fig. 6) in 25 mM HEPES pH 7.4, 150 mM NaCl, 0.1% Nonidet P-40, 2 mM CaCl2, 30 °C 30 min; then DPS 30 °C 30 min, N-ethylmaleimide; SDS-PAGE, Coomassie blue
T3 construct: Pdi1, protein disulfide isomerase of S. cerevisiae, untagged; Trx domains a, b, b′ and a′; amino acids 24–500 could be modelled; source: S. cerevisiae, overexpressed together with Mnl1–FLAG (GAL1 promoter), purified as a complex
T3 sequence (looked up): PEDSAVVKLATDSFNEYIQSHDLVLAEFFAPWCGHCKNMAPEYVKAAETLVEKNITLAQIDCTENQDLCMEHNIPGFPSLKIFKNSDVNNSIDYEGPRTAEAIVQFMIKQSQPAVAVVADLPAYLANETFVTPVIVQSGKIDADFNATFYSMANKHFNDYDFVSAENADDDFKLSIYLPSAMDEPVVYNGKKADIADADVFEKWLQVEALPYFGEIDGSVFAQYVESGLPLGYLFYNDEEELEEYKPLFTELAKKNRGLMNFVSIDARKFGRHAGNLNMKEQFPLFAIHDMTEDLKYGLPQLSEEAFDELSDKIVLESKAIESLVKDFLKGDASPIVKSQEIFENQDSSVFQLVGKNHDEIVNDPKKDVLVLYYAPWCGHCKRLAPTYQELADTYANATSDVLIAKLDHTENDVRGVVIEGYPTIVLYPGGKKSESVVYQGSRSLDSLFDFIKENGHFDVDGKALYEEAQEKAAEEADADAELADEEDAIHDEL

binding result [1]: binds
binding result [2]: binds
molar excess for half-maximal inhibition of the Mnl1–Pdi1 disulfide adduct [3]: 2 fold molar excess
B1: RNase B, completely unfolded (reduced and denatured) (enzyme, UniProt P61823 27-150, looked up)
chain: KETAAAKFERQHMDSSTSAASSSNYCNQMMKSRNLTKDRCKPVNTFVHESLADVQAVCSQKNVACKNGQTNCYQSYSTMSITDCRETGSSKYPNCAYKTTQANKHIIVACEGNPYVPVHFDASV
modifications: N-glycan; cysteines reduced; DyLight 680 (NHS ester) label in the pull-downs
notes: RNase B, reduced and denatured; also called RBun; unfolded RNase B; source: prepared from RB with 6 M guanidine hydrochloride and 100 mM DTT, denaturants removed by dialysis and a desalting column
